Measurements as given in patent publication US9926214B2, “Use of peracetic acid/hydrogen peroxide and peroxide-reducing agents for treatment of drilling fluids, frac fluids, flowback water and disposal water” (Ecolab USA Inc., priority 2012, dated 2018).
Like-named read-outs stand apart in the source and are kept apart here.

How the values were obtained:
[1] = format: physicochemical
Experimental: Field of use applications were analyzed to determine the amount of a peroxide-reducing enzyme necessary to obtain desired concentrations of both peracid and hydrogen peroxide in a treated water source. EnviroSan (POAA) peracid composition was added to water to reach the targeted POAA concentrations set forth in Table 18, and the concentration of both POAA and H2O2 were confirmed by iodometric titration. Then catalase (ES2000) was added to the solution, and the sample was stored under ambient conditions. The concentration of POAA and H2O2 were monitored by the iodometric conditions.

[2] = Example 21 hydrogen peroxide decomposition with sequenced POAA and hypochlorite in deionized and contaminated water; format: physicochemical; settings: water not containing any biological contamination
Text: Additional evaluation of the process of using peroxide-reducing agents in sequence was further analyzed as shown in Table 32 using additional water samples, including deionized water (i.e. not contaminated), and the Control (as set forth above as a contaminated water source).
The peracetic acid and sodium hypochlorite are indistinguishable in titration, and are therefore presumed to consist of ½ of the titrateable material; however the focus of the evaluation was solely on the hydrogen peroxide decomposition.

[3] = Catalase 0.5 ppm, Time 1 hr, run starting at 14.6 ppm POAA
[4] = Catalase 1.0 ppm, Time 1 hr, run starting at 30.1 ppm POAA

| Compound | selectivity of H2O2 decomposition versus POAA stability [1] | H2O2(ppm) ([1]; Catalase 0.5 ppm, Time 0 hr, run starting at 14.6 ppm POAA) | H2O2(ppm) [1, 3] [ppm] | POAA (ppm) [1, 3] [ppm] | POAA (ppm) ([1]; Catalase 0.5 ppm, Time 1 hr, run starting at 31.1 ppm POAA) | H2O2(ppm) ([1]; Catalase 0.5 ppm, Time 2 hr, run starting at 14.6 ppm POAA) | H2O2(ppm) ([1]; Catalase 0.5 ppm, Time 2 hr, run starting at 31.1 ppm POAA) | H2O2(ppm) ([1]; Catalase 0.5 ppm, Time 3.6 hr, run starting at 14.6 ppm POAA) | H2O2(ppm) ([1]; Catalase 0.5 ppm, Time 3.6 hr, run starting at 31.1 ppm POAA) | H2O2(ppm) ([1]; Catalase 1.0 ppm, Time 1 hr, run starting at 14.8 ppm POAA) | H2O2(ppm) [1, 4] [ppm] | POAA (ppm) [1, 4] [ppm] | H2O2(ppm) ([1]; Catalase 1.0 ppm, Time 2 hr, run starting at 14.8 ppm POAA) | H2O2(ppm) ([1]; Catalase 1.0 ppm, Time 2 hr, run starting at 30.1 ppm POAA) | H2O2(ppm) ([1]; Catalase 1.0 ppm, Time 3.6 hr, run starting at 14.8 ppm POAA) | H2O2(ppm) ([1]; Catalase 1.0 ppm, Time 3.6 hr, run starting at 30.1 ppm POAA) | lowest catalase concentration treating pond water with POAA and H2O2 ([1]; within 4 hours, ambient conditions) [ppm] | impact on the decomposition of hydrogen peroxide [2] |
| --- | --- | --- | --- | --- | --- | --- | --- | --- | --- | --- | --- | --- | --- | --- | --- | --- | --- | --- |
| catalase | selectively decomposes the H2O2 without having any negative impact on POAA stability | 12.0 | 7.5 | 15.0 | 32.0 | 6.5 | 7.8 | 1.8 | 3.4 | 3.7 | 7.6 | 31.0 | 1.1 | 2.3 | 0.4 | 0.0 | 0.5 | – |
| OCl [hypochlorite, sodium hypochlorite] | – | – | – | – | – | – | – | – | – | – | – | – | – | – | – | – | – | efficacious impact on the decomposition of hydrogen peroxide |
